We go through 2 molecules from patent publication US20230081195A1 (INSTITUTE OF GENETICS AND DEVELOPMENT BIOLOGY CHINESE …, published 2023).

One series concerns the target T1, OML4-nLUC (rice; firefly, UniProt Q64M78 1-1001).
T1 construct: Co-expressed in N. benthamiana leaves; Order of the pieces follows the printed name; not shown: N-terminal fragment of firefly luciferase (nLUC)
T1 sequence: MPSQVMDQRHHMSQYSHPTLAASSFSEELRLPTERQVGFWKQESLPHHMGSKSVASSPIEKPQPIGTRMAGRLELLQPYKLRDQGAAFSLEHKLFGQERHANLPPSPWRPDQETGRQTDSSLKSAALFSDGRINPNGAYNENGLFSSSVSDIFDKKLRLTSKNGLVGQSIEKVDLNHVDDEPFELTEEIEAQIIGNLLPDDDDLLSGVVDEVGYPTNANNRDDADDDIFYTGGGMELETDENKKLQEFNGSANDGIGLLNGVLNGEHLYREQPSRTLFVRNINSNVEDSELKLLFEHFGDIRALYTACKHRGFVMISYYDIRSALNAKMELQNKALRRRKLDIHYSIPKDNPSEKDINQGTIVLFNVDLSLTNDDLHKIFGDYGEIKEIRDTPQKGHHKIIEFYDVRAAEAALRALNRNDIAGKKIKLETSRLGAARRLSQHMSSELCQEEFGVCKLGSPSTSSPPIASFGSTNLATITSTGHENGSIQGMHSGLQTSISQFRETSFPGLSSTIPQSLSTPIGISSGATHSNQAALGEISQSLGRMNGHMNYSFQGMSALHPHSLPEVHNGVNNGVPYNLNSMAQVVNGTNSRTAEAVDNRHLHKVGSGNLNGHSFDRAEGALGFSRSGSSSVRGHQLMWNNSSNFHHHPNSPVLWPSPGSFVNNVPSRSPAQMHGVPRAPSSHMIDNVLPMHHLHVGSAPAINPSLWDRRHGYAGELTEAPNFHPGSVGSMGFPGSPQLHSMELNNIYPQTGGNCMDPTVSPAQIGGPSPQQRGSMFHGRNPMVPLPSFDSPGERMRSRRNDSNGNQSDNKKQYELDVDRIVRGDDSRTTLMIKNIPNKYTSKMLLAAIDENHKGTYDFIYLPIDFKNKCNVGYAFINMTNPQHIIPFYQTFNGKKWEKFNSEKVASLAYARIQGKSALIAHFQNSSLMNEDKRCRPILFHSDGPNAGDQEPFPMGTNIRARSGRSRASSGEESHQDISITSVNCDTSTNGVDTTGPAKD
As to the kind of experiment: firefly luciferase complementation imaging, co-expression in N. benthamiana leaves. Here is the method: (A) OML4 interacts with GSK2 in yeast cells. Yeast cells were cultured on SD/-Trp-Leu or SD/-Trp-Leu-His-Ade media. (B) OML4 associates with GSK2 in N. benthamiana. OML4-nLUC and GSK2-cLUC were co-expressed in N. benthamiana leaves. Luciferase activity was observed 48 hours after infiltration. The range of luminescence intensity was scaled by the pseudocolor bar. (C) Bimolecular fluorescence complementation (BiFC) assays shown that OML4 interacts with GSK2 in N. benthamiana. OML4-cYFP was coexpressed with GSK2-nYFP in leaves of N. benthamiana. (D) OML4 binds GSK2 in vitro. GSK2-GST was incubated with OML4-MBP and pulled down by OML4-MBP and detected by immunoblot with anti-GST antibody. IB: immunoblot. (E) Interaction between OML4 and GSK2 in the Co-IP assays. Anti-MYC beads were used to immunoprecipitate GSK2-GFP proteins. Gel blots were probed with anti-MYC or anti-GFP antibody. Bars: 50 μm in C.
We next verified the interaction between OML4 and GSK2 in plant cells using the firefly luciferase (LUC) complementation imaging assay (FIG. 5B). The OML4-nLUC and GSK2-cLUC were transformed and co-expressed in N. benthamiana leaves. […] We then performed bimolecular fluorescence complementation (BiFC) assay to test the interaction between OML4 and GSK2 in plant cells (FIG. 5C). […]

In the next series the target is T2, nOML4-Flag.
T2 chain: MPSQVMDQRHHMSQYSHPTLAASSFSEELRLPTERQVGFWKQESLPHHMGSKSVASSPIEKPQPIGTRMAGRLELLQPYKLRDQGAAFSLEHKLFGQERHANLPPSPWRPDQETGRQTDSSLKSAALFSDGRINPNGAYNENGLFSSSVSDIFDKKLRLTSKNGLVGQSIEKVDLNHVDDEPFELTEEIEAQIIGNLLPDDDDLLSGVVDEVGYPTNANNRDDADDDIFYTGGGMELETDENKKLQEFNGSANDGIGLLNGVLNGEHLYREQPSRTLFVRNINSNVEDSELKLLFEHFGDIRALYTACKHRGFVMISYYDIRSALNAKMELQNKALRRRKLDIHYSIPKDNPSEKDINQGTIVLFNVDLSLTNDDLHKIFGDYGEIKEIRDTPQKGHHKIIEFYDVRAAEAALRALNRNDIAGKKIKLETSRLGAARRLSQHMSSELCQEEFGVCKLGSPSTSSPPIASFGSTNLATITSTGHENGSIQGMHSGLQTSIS

In the next series the target is T3, OML4-Flag.
T3 chain: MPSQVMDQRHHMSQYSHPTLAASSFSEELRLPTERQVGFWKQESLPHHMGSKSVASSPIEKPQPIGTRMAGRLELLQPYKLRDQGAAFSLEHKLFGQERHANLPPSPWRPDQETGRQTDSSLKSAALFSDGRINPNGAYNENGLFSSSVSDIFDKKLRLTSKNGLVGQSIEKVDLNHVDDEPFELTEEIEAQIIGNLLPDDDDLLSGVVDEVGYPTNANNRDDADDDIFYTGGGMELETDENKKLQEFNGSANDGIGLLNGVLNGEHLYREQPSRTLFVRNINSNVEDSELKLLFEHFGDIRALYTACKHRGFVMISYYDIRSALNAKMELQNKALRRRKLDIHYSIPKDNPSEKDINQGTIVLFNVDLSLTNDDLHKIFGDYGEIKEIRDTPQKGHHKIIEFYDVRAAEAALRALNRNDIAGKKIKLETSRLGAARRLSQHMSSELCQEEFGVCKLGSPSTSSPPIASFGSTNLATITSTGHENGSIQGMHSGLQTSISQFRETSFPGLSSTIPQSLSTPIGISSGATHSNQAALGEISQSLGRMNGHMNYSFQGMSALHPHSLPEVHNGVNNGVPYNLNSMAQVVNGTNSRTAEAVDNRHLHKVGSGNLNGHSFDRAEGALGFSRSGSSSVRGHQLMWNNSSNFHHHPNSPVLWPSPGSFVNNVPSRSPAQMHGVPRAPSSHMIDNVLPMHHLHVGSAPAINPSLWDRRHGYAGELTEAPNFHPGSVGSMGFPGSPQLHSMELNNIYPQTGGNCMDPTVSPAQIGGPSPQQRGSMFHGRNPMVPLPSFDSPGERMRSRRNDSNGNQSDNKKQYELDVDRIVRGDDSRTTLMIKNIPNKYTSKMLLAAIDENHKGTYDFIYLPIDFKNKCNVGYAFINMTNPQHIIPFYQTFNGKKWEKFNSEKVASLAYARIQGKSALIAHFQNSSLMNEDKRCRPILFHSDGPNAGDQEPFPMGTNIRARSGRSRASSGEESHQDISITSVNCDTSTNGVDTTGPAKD

Another series has as its target T4, cOML4-Flag.
T4 chain: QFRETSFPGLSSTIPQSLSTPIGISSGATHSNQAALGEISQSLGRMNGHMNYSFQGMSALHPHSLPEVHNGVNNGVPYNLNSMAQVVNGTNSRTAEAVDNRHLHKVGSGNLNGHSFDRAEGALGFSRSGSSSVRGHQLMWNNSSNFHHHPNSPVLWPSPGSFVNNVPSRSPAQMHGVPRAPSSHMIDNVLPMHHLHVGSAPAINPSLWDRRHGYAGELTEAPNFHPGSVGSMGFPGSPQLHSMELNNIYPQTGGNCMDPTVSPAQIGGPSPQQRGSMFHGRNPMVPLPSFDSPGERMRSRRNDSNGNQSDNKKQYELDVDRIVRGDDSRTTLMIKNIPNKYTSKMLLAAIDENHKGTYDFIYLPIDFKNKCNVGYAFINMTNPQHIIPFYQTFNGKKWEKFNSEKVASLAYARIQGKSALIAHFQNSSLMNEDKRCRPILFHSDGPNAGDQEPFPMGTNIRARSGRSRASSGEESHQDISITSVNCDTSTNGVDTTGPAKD

B1: cLUC (other, firefly, UniProt P08659 398-550, looked up)
chain: MSGYVNNPEATNALIDKDGWLHSGDIAYWDEDEHFFIVDRLKSLIKYKGYQVAPAELESILLQHPNIFDAGVAGLPDDDAGELPAAVVVLEHGKTMTEKEIVDYVASQVTTAKKLRGGVVFVDEVPKGLTGKLDARKIREILIKAKKGGKSKL
notes: Control of the luciferase complementation imaging assay
In the case of B1, the binding result with OML4-nLUC is “no binding”.

B2: GSK2-GST (protein)
chain: MDQPAPAPEPMLLDAQPPAAVACDKKQQEGEAPYAEGNDAVTGHIISTTIGGKNGEPKRTISYMAERVVGTGSFGIVFQAKCLETGETVAIKKVLQDRRYKNRELQLMRAMDHPNVISLKHCFFSTTSRDELFLNLVMEYVPETLYRVLKHYSNANHRMPLIYVKLYMYQLFRGLAYIHTVPGVCHRDVKPQNVLVDPLTHQVKLCDFGSAKTLVPGEPNISYICSRYYRAPELIFGATEYTTSIDIWSAGCVLAELLLGQPLFPGESAVDQLVEIIKVLGTPTREEIRCMNPNYTEFRFPQIKAHPWHKVFHKRMPPEAIDLASRLLQYSPSLRCTALDACAHPFFDELREPNARLPNGRPFPPLFNFKHELANSSQELISRLIPEHVRRQATHNFFNTGS
Take B2: the “phosphorylation, phos-tag SDS-PAGE” value with nOML4(S105A)-FLAG was “S(105) and S(607) partially influence the phosphorylation of OML4”; with cOML4(S607A)-FLAG it was “S(105) and S(607) partially influence the phosphorylation of OML4”. Also, the “phosphorylation, in vitro kinase assay, phos-tag SDS-PAGE” value is “The phosphorylated OML4-Flag, nOML4-Flag and cOML4-Flag were detected in the presence of GSK2-GST, while the phosphorylated OML4-Flag, nOML4-Flag and cOML4-Flag were not found in the absence of GSK2-GST” with nOML4-Flag; “The phosphorylated OML4-Flag, nOML4-Flag and cOML4-Flag were detected in the presence of GSK2-GST, while the phosphorylated OML4-Flag, nOML4-Flag and cOML4-Flag were not found in the absence of GSK2-GST” with OML4-Flag; “The phosphorylated OML4-Flag, nOML4-Flag and cOML4-Flag were detected in the presence of GSK2-GST, while the phosphorylated OML4-Flag, nOML4-Flag and cOML4-Flag were not found in the absence of GSK2-GST” with cOML4-Flag. Besides, in the series with OML4S105A, S607A-MBP, the “phosphorylation level, phos-tag SDS-PAGE” value is “Mutations of the two aforementioned Ser residues to Ala reduced the phosphorylation level of OML4, although OML4^S105A,S607A was still phosphorylated by GSK2”.
